Consider 1 molecule from publication PMC8062686, “Structural variation at the maize WUSCHEL1 locus alters stem cell organization in inflorescences”.

This series deals with T1, GST-ZmRR8 DNA-binding domain (Zea mays, UniProt Q9AV93 191-262).
T1 sequence: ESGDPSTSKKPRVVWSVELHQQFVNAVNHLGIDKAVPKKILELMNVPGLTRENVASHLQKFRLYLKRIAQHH
In words: EMSA; 1x LightShift Binding Buffer, 50 ng/uL poly(dI/dC), 2.5% glycerol, room temperature 20 min, 6% DNA retardation gel; pH and salt not given. Particulars: protein: recombinant; tags: GST (pET-60-DEST).

B1: m119 bp (three AGATAT to TTTTTT) (dsDNA)
DNA 1: TAATTTTTTCGTCGTATCCCATGATCCTTCGTGTGTCAACTTCACTTGTCTCTCTCCAAATTTTTTCGTCGTATCCCATGATCCTTCCTCCCCTCCAAATTTTTTCGTCGTATCACAGTA
DNA 2: TACTGTGATACGACGAAAAAATTTGGAGGGGAGGAAGGATCATGGGATACGACGAAAAAATTTGGAGAGAGACAAGTGAAGTTGACACACGAAGGATCATGGGATACGACGAAAAAATTA
Take B1: the binding result was “no binding”.
